# Experimental data as given in PMC4363072.
# Target: GST-BS69_(50-401) FW point mutant (F293A, W294A) (human) (UniProt Q15326)
# Assay: MST
# Chain of GST-BS69_(50-401) FW point mutant (F293A, W294A) (human) (Q15326 50-401 F293A/W294A): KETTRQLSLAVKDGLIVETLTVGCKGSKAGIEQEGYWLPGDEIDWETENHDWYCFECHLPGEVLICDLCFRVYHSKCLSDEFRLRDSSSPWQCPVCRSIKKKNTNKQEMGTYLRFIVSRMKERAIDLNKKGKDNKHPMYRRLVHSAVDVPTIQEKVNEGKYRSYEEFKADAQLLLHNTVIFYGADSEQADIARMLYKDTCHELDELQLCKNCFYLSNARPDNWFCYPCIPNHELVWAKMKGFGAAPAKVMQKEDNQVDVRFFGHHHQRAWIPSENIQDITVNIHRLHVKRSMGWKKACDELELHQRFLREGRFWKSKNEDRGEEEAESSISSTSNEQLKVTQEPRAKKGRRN
substance,measurement,value
H3.3K36me3 peptide,Kd,277 µM
